Test results taken from IntAct's records for PubMed 27314904.

B1: Polyglutamine-binding protein 1 (Homo sapiens), O60828 (parent)
chain: MPLPVALQTRLAKRGILKHLEPEPEEEIIAEDYDDDPVDYEATRLEGLPPSWYKVFDPSCGLPYYWNADTDLVSWLSPHDPNSVVTKSAKKLRSSNADAEEKLDRSHDKSDRGHDKSDRSHEKLDRGHDKSDRGHDKSDRDRERGYDKVDRERERDRERDRDRGYDKADREEGKERRHHRREELAPYPKSKKAVSRKDEELDPMDPSSYSDAPRGTWSTGLPKRNEAKTGADTTAAGPLFQQRPYPSPGAVLRANAEASRTKQQD
B2: WW domain-binding protein 11 (Homo sapiens), Q9Y2W2 (parent)
chain: MGRRSTSSTKSGKFMNPTDQARKEARKRELKKNKKQRMMVRAAVLKMKDPKQIIRDMEKLDEMEFNPVQQPQLNEKVLKDKRKKLRETFERILRLYEKENPDIYKELRKLEVEYEQKRAQLSQYFDAVKNAQHVEVESIPLPDMPHAPSNILIQDIPLPGAQPPSILKKTSAYGPPTRAVSILPLLGHGVPRLPPGRKPPGPPPGPPPPQVVQMYGRKVGFALDLPPRRRDEDMLYSPELAQRGHDDDVSSTSEDDGYPEDMDQDKHDDSTDDSDTDKSDGESDGDEFVHRDNGERDNNEEKKSGLSVRFADMPGKSRKKKKNMKELTPLQAMMLRMAGQEIPEEGREVEEFSEDDDEDDSDDSEAEKQSQKQHKEESHSDGTSTASSQQQAPPQSVPPSQIQAPPMPGPPPLGPPPAPPLRPPGPPTGLPPGPPPGAPPFLRPPGMPGLRGPLPRLLPPGPPPGRPPGPPPGPPPGLPPGPPPRGPPPRLPPPAPPGIPPPRPGMMRPPLVPPLGPAPPGLFPPAPLPNPGVLSAPPNLIQRPKADDTSAATIEKKATATISAKPQITNPKAEITRFVPTALRVRRENKGATAAPQRKSEDDSAVPLAKAAPKSGPSVPVSVQTKDDVYEAFMKEMEGLL

Variants of: B1
Conditions: with wbp11_human WBP11, Q9Y2W2

Row | effect of a mutation on the interaction | Variant
1 | disrupting interaction | Y65C
2 | disrupting interaction | W66A
3 | disrupting interaction | W75A
4 | decreasing interaction | V73A
5 | disrupting interaction | Y64A

Variants of: B2
Conditions: with pqbp1_human PQBP1, O60828

Row | effect of a mutation on the interaction | Variant
6 | disrupting interaction | P462A;P463A;P464A;G465A

Variants of: B2
Conditions: with pqbp1_human PQBP1, O60828
Remark: another data set of the same source

Row | effect of a mutation on the interaction | Variant
7 | decreasing interaction | P455A;R456A;L457A;L458A

Variants of: B2
Conditions: with pqbp1_human PQBP1, O60828
Remark: another data set of the same source

Row | effect of a mutation on the interaction | Variant
8 | decreasing interaction | P459A;P460A;G461A

Variants of: B2
Conditions: with pqbp1_human PQBP1, O60828
Remark: another data set of the same source

Row | effect of a mutation on the interaction | Variant
9 | decreasing interaction | R466A;P467A;P468A;G469A
